Source: article PMC3461310 (2013)
“And” between values parts separate entries of the source, which are not always exact repeats. Equal entries are not always repeated.

Legend:
[1] = target: thrombin ([4′F]FPR-T) (Homo sapiens, UniProt P00734, active site labeled with 4′-fluorescein-FPR); assay: fluorescence equilibrium binding
[2] = target: thrombin ([6F]FFR-T) (Homo sapiens, UniProt P00734, active site labeled with 6-fluorescein-FFR, heparin (T·Hep complex)); assay: fluorescence equilibrium binding
[3] = target: thrombin ([4′F]FPR-T) (Homo sapiens, UniProt P00734, active site labeled with 4′-fluorescein-FPR, heparin (T·(Hep)2 complex)); assay: fluorescence equilibrium binding
[4] = target: thrombin ([4′F]FPR-T) (Homo sapiens, UniProt P00734, active site labeled with 4′-fluorescein-FPR, heparin (T·Hep complex)); assay: fluorescence equilibrium binding
[5] = target: thrombin ([6F]FFR-T) (Homo sapiens, UniProt P00734, active site labeled with 6-fluorescein-FFR, heparin (T·(Hep)2 complex)); assay: fluorescence equilibrium binding
[6] = target: thrombin (Homo sapiens, UniProt P00734, heparin (1 and 50 μM)); assay: inactivation kinetics with Hir-

Kd [1] | Kd [2] | Kd [3] | Kd [4] | Kd [5] | Kd [6] | Binder
5000 nM |  |  |  |  |  | prothrombin fragment 2 fragment 2 (protein) SEGSSVNLSPPLEQCVPDRGQQYQGRLAVTTHGLPCLAWASAQAKALSKHQDFNSAVQLVENFCRNPDGDEEGVWCYVAGKPGDFGYCDLNYCEEAVEEETGDGLDEDSDRAIEGRTATSEYQTFFNPR
 | 300 nM and 150 nM | 600 nM | 200 nM and 230 nM | 140 nM | 40 nM | heparin cofactor II (protein) GSKGPLDQLEKGGETAQSADPQWEQLNNKNLSMPLLPADFHKENTVTNDWIPEGEEDDDYLDLEKIFSEDDDYIDIVDSLSVSPTDSDVSAGNILQLFHGKSRIQRLNILNAKFAFNLYRVLKDQVNTFDNIFIAPVGISTAMGMISLGLKGETHEQVHSILHFKDFVNASSKYEITTIHNLFRKLTHRLFRRNFGYTLRSVNDLYIQKQFPILLDFKTKVREYYFAEAQIADFSDPAFISKTNNHIMKLTKGLIKDALENIDPATQMMILNCIYFKGSWVNKFPVEMTHNHNFRLNEREVVKVSMMQTKGNFLAANDQELDCDILQLEYVGGISMLIVVPHKMSGMKTLEAQLTPRVVERWQKSMTNRTREVLLPKFKLEKNYNLVESLKLMGIRMLFDKNGNMAGISDQRIAIDLFKHQGTITVNEEGTQATTVTTVGFMPLSTQVRFTVDRPFLFLIYEHRTSCLLFMGRVANPSRS
